Tested on: supercharged variant of human trypsinogen-1 (PRSS1 sc)
Sequence (chain, as listed by the source mutant): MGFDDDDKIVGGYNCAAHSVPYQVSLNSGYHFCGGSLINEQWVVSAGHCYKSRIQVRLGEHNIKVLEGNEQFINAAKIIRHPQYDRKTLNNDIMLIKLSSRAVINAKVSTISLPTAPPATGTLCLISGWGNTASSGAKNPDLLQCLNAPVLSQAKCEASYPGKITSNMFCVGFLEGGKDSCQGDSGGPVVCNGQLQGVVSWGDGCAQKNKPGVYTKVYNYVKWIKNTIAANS

For trypsin, the “autoactivation (trypsin activity on CBZ-GPR-pNA after incubation with trypsin)” value was “PRSS1 sc (SEQ ID NO 01) does not show a significant autoactivation”.
